This is an account of results in US20230303698A1 (published 2023).

For assay [1], the target named is T1, human PD-L1 (human, UniProt Q9NZQ7 19-290). As to the kind of experiment: FACS; panel A. (In flow cytometry, cells or beads pass a laser one at a time.)
The target in assay [2] is T1, human PD-L1. As to the kind of experiment: FACS; panel B.
Assay [3] concerns the target T1, human PD-L1. As to the kind of experiment: FACS; panel C.
The target in assay [4] is T1, human PD-L1. The assay can be described thus: FACS binding to CHO-K1/hPD-L1 cells.
In assay [5] the target is T2, human 4-1BB (human, UniProt Q07011 24-255). The assay can be described thus: FACS.
For another assay, the target named is T3, cynomolgus monkey 4-1BB (cynomolgus monkey).
T3 chain: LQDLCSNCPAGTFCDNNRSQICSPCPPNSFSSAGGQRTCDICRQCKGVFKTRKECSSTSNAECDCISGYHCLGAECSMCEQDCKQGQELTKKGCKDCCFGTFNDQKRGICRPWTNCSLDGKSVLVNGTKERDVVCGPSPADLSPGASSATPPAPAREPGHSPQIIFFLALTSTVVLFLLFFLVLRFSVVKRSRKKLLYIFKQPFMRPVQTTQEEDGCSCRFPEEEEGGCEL
The assay can be described thus: FACS.

The target in assay [6] is T2, human 4-1BB. As to the kind of experiment: FACS. The source holds these as a separate data set.
Assay [7] addresses T2, human 4-1BB. As to the kind of experiment: FACS. The source holds these as a separate data set.
In assay [8] the target is T2, human 4-1BB. The assay can be described thus: FACS; FIG. 5.
Assay [9] deals with T2, human 4-1BB. The assay can be described thus: FACS; FIG. 6.
Assay [10] addresses T2, human 4-1BB. As to the kind of experiment: FACS; panel A.
Assay [11] has as its target T2, human 4-1BB. As to the kind of experiment: FACS; panel B.
Assay [12] addresses T2, human 4-1BB. The assay can be described thus: FACS; panel A. This is another data set of the same source.
The target in assay [13] is T2, human 4-1BB. The assay can be described thus: FACS; panel B. The source holds these as a separate data set.
Assay [14] concerns the target T2, human 4-1BB. The assay can be described thus: FACS; panel C.

T1 sequence (Q9NZQ7 19-290): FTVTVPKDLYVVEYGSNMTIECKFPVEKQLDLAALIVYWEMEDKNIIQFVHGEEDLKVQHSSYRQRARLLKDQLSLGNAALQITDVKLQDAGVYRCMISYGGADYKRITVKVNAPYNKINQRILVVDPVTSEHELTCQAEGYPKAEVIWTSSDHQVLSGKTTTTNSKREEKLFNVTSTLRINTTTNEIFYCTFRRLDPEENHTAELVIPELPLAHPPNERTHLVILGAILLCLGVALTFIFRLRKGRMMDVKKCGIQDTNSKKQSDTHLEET

B1: PR000265, anti-PD-L1 91G3H5H3(D54E), hIgG1(N297A) (antibody, V domains shown)
VH: EVQLVESGGGLVQPGGSLRLSCAASGFTFSSYWMSWVRQAPGKGLEWVANIKQEGSEKYYVDSVKGRFTISRDNAKNSLYLQMNSLRAEDTAVYYCARDRAVAGAFDIWGQGTMVTVSS
VL: DIQMTQSPSTLSASVGDRVTVTCRASQSIYIWLAWYQQKPGKAPNLLIYKASSLETGVPSRFSGSGSGTEFTLTISSLQPDDFATYYCQQYYGSSRTFGQGTKVEIKR
As to B1, the EC50 in the assay with human PD-L1 [1] is 0.781 nM; in the assay with human PD-L1 [2], 0.356 nM; in the assay with human PD-L1 [3] it was 1.56 nM; with human PD-L1 [4], 1.26 nM.

B2: PR001760, anti-4-1BB heavy-chain antibody 1016P0011G10 (antibody, V domains shown)
VH: EVQLVESGGGVVQPGGSLRLSCAASGFTFSNYAMTWVRQAPEKGLEWVSSISGSGVSTYYADSVKGRFTISRDNSKNTLYLQMTRLTAEDTAVYFCAKEGSSETDDHYYNVDVWGQGTTVTVSS
Turning to B2, the values for the EC50 in the assay with human 4-1BB [5], in the assay with cynomolgus monkey 4-1BB and with human 4-1BB [6] were 3.76 nM, 0.443 nM and 3.76 nM, respectively.

B3: Anti-4-1BB monoclonal antibody urelumab analog (antibody, V domains shown)
VH: QVQLQQWGAGLLKPSETLSLTCAVYGGSFSGYYWSWIRQSPEKGLEWIGEINHGGYVTYNPSLESRVTISVDTSKNQFSLKLSSVTAADTAVYYCARDYGPGNYDWYFDLWGRGTLVTVSS
VL: EIVLTQSPATLSLSPGERATLSCRASQSVSSYLAWYQQKPGQAPRLLIYDASNRATGIPARFSGSGSGTDFTLTISSLEPEDFAVYYCQQRSNWPPALTFGGGTKVEIKR
Regarding B3, the EC50 with human 4-1BB [7] stood at 1.51 nM; with human 4-1BB [8], 0.459 nM; with human 4-1BB [9] it was 0.459 nM; in the assay with human 4-1BB [10] it was 1.01 nM; in the assay with human 4-1BB [11], 0.347 nM; in the assay with human 4-1BB [12], 0.424 nM. For the same molecule, the EC50 in the assay with human 4-1BB [13] was 0.794 nM; with human 4-1BB [14], 1.51 nM.

What is called EC50 is the concentration giving half of the maximal effect.
